Results on three proteins are retold here after US20240117325.

First the molecules themselves.
B1: fusion protein of ferredoxin-thioredoxin reductase (FTRB/FTRA2) and thioredoxin Y2 fused via linker peptide (GGGGS)3 of 15 amino acid residues (protein)
chain 1: AKTEPSEKSVEIMRKFSEQYARRSGTYFCVDKGVTSVVIKGLAEHKDSYGAPLCPCRHYDDKAAEVGQGFWNCPCVPMRERKECHCMLFLTPDNDFAGKDQTITSDEIKETTANMGGGGSGGGGSGGGGSAAKKQTFNSFDDLLQNSDKPVLVDFYATWCGPCQLMVPILNEVSETLKDIIAVVKIDTEKYPSLANKYQIEALPTFILFKDGKLWDRFEGALPANQLVERIENSLQVKQ
chain 2: DIAVKSAASVDADADLSSSTSLETEEDEKAKEKIGARVRVTVPLKVYHVVRVPEVELMGMEGFIKDYVVLWKGKKISANLPFKVQFVKEIEGRGPVKFFTHLKEDEFELIDPHHHHHH
B2: fusion protein of ferredoxin-thioredoxin reductase (FTRB/FTRA2) and thioredoxin Y2 fused via linker peptide (GGGGS)1 of 5 amino acid residues (protein)
chain 1: AKTEPSEKSVEIMRKFSEQYARRSGTYFCVDKGVTSVVIKGLAEHKDSYGAPLCPCRHYDDKAAEVGQGFWNCPCVPMRERKECHCMLFLTPDNDFAGKDQTITSDEIKETTANMGGGGSAAKKQTFNSFDDLLQNSDKPVLVDFYATWCGPCQLMVPILNEVSETLKDIIAVVKIDTEKYPSLANKYQIEALPTFILFKDGKLWDRFEGALPANQLVERIENSLQVKQ
chain 2: B1 chain 2
B3: fusion protein of ferredoxin-thioredoxin reductase (FTRB/FTRA2) and thioredoxin Y2 fused via linker peptide (GGGGS)2 of 10 amino acid residues (protein)
chain 1: AKTEPSEKSVEIMRKFSEQYARRSGTYFCVDKGVTSVVIKGLAEHKDSYGAPLCPCRHYDDKAAEVGQGFWNCPCVPMRERKECHCMLFLTPDNDFAGKDQTITSDEIKETTANMGGGGSGGGGSAAKKQTFNSFDDLLQNSDKPVLVDFYATWCGPCQLMVPILNEVSETLKDIIAVVKIDTEKYPSLANKYQIEALPTFILFKDGKLWDRFEGALPANQLVERIENSLQVKQ
chain 2: B1 chain 2

This data set deals with β-lactoglobulin.
For the protein B1, the “allergenic protein degradation rate” value was “the degradation rate was 56%”; the “allergenic protein residual rate” value is given as “the allergenic protein residual rate was 44%”; the “reductase activity (AMS labelling, SDS-PAGE)” value (from here on “reductase activity”) was “The reduced form of the allergenic protein was detected in all of (b) to (d) in FIG. 11, confirming reductase activity”.

Take B2: the “allergenic protein degradation rate” value is “the degradation rate was 29%”; the “allergenic protein residual rate” value was “the allergenic protein residual rate was 71%”; the “reductase activity” value is “The reduced form of the allergenic protein was detected in all of (b) to (d) in FIG. 11, confirming reductase activity”.

With B3, the “allergenic protein degradation rate” value is “the degradation rate was 58%”; the “allergenic protein residual rate” value is given as “the allergenic protein residual rate was 42%”; the “reductase activity” value is “The reduced form of the allergenic protein was detected in all of (b) to (d) in FIG. 11, confirming reductase activity”.
